This series deals with the molecule itself. Nature of the series: solubility assay (sedimentation) + TEM; recombinant fibrils in 50 mM HEPES, pH 7.5; solubility assay 16.000 g, 30 min, 4°C; negative staining with 1% uranyl acetate.

B1: recombinant full-length Ure2p fibrils (natural protein, yeast, UniProt P23202 1-354, looked up)
chain: MMNNNGNQVSNLSNALRQVNIGNRNSNTTTDQSNINFEFSTGVNNNNNNNSSSNNNNVQNNNSGRNGSQNNDNENNIKNTLEQHRQQQQAFSDMSHVEYSRITKFFQEQPLEGYTLFSHRSAPNGFKVAIVLSELGFHYNTIFLDFNLGEHRAPEFVSVNPNARVPALIDHGMDNLSIWESGAILLHLVNKYYKETGNPLLWSDDLADQSQINAWLFFQTSGHAPMIGQALHFRYFHSQKIASAVERYTDEVRRVYGVVEMALAERREALVMELDTENAAAYSAGTTPMSQSRFFDYPVWLVGDKLTIADLAFVPWNNVVDRIGINIKIEFPEVYKWTKHMMRRPAVIKALRGE
In the case of B1, the binding result is “binds”.
